This is an account of results in paper doi:10.1101/197848.

The target in the experiment is Xenopus Smc3R626C-Halo (subunit of the hinge-substituted recombinant tetramer, not crosslinked) (Xenopus) (UniProt O93309). Kind of experiment: cross-linking.

Consider “Xenopus Smc1D566C (subunit of the hinge-substituted recombinant tetramer) (from UniProt O93308 1-1232) (natural protein)”, for which the crosslinking efficiency was found to be 40%.
